Results: the nanobody polyreactivity screen of Harvey et al. (2022)

Experiment: yeast display, Sf9 membrane polyspecificity reagent, FACS + sequencing; frameworks hold sequencing errors
Summary of the method: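 After 36–48 hours of galactose induction, yeast (Saccharomyces cerevisiae BJ5465) displaying a synthetic nanobody library were stained at 4 °C for 1 hour with 10% biotinylated, detergent-solubilized Sf9 membrane reagent. Streptavidin microbeads enriched the stained cells before FACS sorting into low and high (top ~1%) gates on anti-HA and streptavidin fluorescence. Each clone's polyreactivity label reflects its gate of origin.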
In the case of “QVQLGESGGGLVQAGGSLRLSCAASGRIFSYYAMGWYRPAPGKERELVAAISYRGSSTNYADSVKGRFTISRDNAKNTVYFQMNSLKPEDTAVYYCATKFFRTAYEYWGQGTQVTVSS”, the “polyreactivity (PSR sort gate)” value was “high polyreactivity”. For “QVQLGESGGGLVQAGGSLRLSCAASGRIFYKNTMGWYRQAPGKERELVAAISWRGGSTYYADSVKGRFTISRDNAKNTVYLQMNSLKPEDTAVYYCNADIWAYKYDYWGQGTQVTVSS”, the “polyreactivity (PSR sort gate)” value was “high polyreactivity”. In the case of “QVQLGESGGGLVQAGGSLRLSCAASGRTCWPYARGWYRQAPGKEMELVAAISRGDRTHYADSVKGRFTISRDNAKKTVYLQMNSLIPEVTAVFYCAADSRYYYYVYKISGDYDSWGQGTHVTVSS”, the “polyreactivity (PSR sort gate)” value was “low polyreactivity”. With “QVQLGESGGGLVQAGGSLRLSCAASGSIFGSYAMGWYRQAPGKERELVAAISKSGGNTYYADSVKGRFTISRDNAKNTDYLQMNSLKPEDTAVYYCAAYGFYRWRGYDYWGQGTQVTLSS” the “polyreactivity (PSR sort gate)” value was “high polyreactivity”. For “QVQLGESGGGLVQAGGSLRLSCAASGSIFGYYAMGWYRQAPGKERELVAAINYSGVSTYYADSVKGRFTISRDNAKNTVYLQMNSLKPEDTAVYYCAALRLYEPGPYGGPLRYGYWGQGTQVTVSS”, the “polyreactivity (PSR sort gate)” value was “high polyreactivity”. With “QVQLGESGGGLVQAGGSLRLSCAASGSIFIGNAMGWYRQAPGKERELVAAITGRGGRTYYADSVKGRFTISRDNAKNTVYLQMNSLKTEDTAVYYCNAVARQFLYGYWGEGTQVTVSS” the “polyreactivity (PSR sort gate)” value was “high polyreactivity”. For “QVQLGESGGGLVQAGGSLRLSCAASGSIFKWYAMGWYRQAPGKERELVAAISASGGSTYYADSVKGRFTISRDNAKNSVYLQMNSLKPEDTAVYYCNTDHYYSSRHYDYWGQGTQVTVSS”, the “polyreactivity (PSR sort gate)” value was “low polyreactivity”. For “QVQLGESGGGLVQAGGSLRLSCAASGSIFRRYARGWYRQAPGKERELVAAISSSGGRTYYADSVKGRFTISRDNAKNTVYLQMNSLKPEETAVYYCAKDTYGFAANRPAGDGYWGQGTQVTVSS”, the “polyreactivity (PSR sort gate)” value was “high polyreactivity”. With “QVQLGESGGGLVQAGGSLRLSCAASGSTFERYSMGWYRQAPGKERELDAAINWSGGGTYYADSVKGRFTISRDNAKNTVYLQMNSLKPEDTAVYYCAADSGNVVFSLWWYEYYYWGQGTQVTVSS” the “polyreactivity (PSR sort gate)” value was “low polyreactivity”. In the case of “QVQLGESGGGLVQAGGSLRLSCAASGSTFPRYVMGWYRQAPGKERELVAAISSSSGRTFYADSVKGRFTISRDNAKNTVYLQMNSLKPEDTAVYYCAARTSFNVHYWGQGTQVTVSS”, the “polyreactivity (PSR sort gate)” value was “high polyreactivity”. With “QVQLGESGGGLVQAGGSLRLSCAASGSTFSCYAMGWYRQAPGKEREFVAAISWSGGSTYYADSVKGRFTISRDTAKNTVYLQMNSLKPEDTEVYYCAATRRGPYWWFGYDYWGQGTQVTVSS” the “polyreactivity (PSR sort gate)” value was “high polyreactivity”. With “QVQLGESGGGLVQAGGSLRLSCAASGSTFYPYAIGWYRQAPGKERELVARITRGDGSTYYADSVKGRFTISRDNAKNTVYVQMNSLKPEDTAVYYCIRVEYYTVWGYDYWGQGTQVTVSS” the “polyreactivity (PSR sort gate)” value was “low polyreactivity”. For “QVQLGESGGGLVQAGGSLRLSCAASGYIFRIYAMGGYRQAPGKERELVAAISRSGGSTSYADSVKGRFTISRDTAKNTVYLQMNSLKPEDTAVYYCATEIRPSRIAQYDYWGQGTQVTVSS”, the “polyreactivity (PSR sort gate)” value was “high polyreactivity”. With “QVQLGESGGGLVQAGGSLRLSCSASMGWNSQAPGKERELVAITRTTRTYYADSVKGRFTISRDNAKNTVYLQMNSLKPEDTAVYYCAAPNGPSPYWYNYWGQGTQVTVSS” the “polyreactivity (PSR sort gate)” value was “low polyreactivity”. In the case of “QVQLGESGGGLVQAGGSLRLTCAAYGRIYGGNAMGWYRQATGKEWELDAGISRRGGSTYYADSVKGRFTISRDNEKNTVYLQMNRLKPEDTAVYYCYAYYRYSVFAEKYDYWGQGTHVTVSS”, the “polyreactivity (PSR sort gate)” value was “high polyreactivity”. In the case of “QVQLGESGGGLVQAGGTLRVSCAPSGITFYGYAMGWYRQAPGKERELVAAINRGGTGTYYADSVKGRFTISRDNAKNTVYLQMNSLKPEDTAVYYCNKAGYPIADPTAGKRQFDNWGHGTQVTVSS”, the “polyreactivity (PSR sort gate)” value was “low polyreactivity”.
